In general, Kd refers to the free concentration of one partner at which half of the binding sites on the other are occupied at equilibrium, for simple one-to-one binding. A lower Kd goes with a tighter complex. For orientation: koff means a measure of how fast the partners let go of each other. Read a high koff as fast dissociation. The term kon denotes the second-order rate constant of association. The low end stands for slow association, the high end for fast association.

Results on 1 molecule are retold here after article PMC13541299.

The target in the assay is biotinylated polymerization-blocked yeast αβ-tubulin, LR1 (β: T175R, V179R) (S. cerevisiae) (UniProt P09733). Nature of the assay: BLI; biotinylated polymerization-blocked tubulin immobilised on Streptavidin (SA) biosensors (OctetR8), dipped into TOG2 at 2.3 to 200 nM; 100 mM PIPES pH 6.9, 10 mM NaCl, 1 mM MgCl2, 1 mM EGTA, 1 mM GTP, 0.1% BSA, 0.005% Triton X-100; association 300 s, dissociation 300 s; 1:1 model; steady-state amplitudes and global kinetic fit.

“And” between values parts separate entries of the source, which are not always exact repeats. Equal values may be shown once.

B1: Stu2-TOG2 (318–560) (domain or fragment)
chain: MLPEETILDKLPKDFQERITSSKWKDRVEALEEFWDSVLSQTKKLKSTSQNYSNLLGIYGHIIQKDANIQAVALAAQSVELICDKLKTPGFSKDYVSLVFTPLLDRTKEKKPSVIEAIRKALLTICKYYDPLASSGRNEDMLKDILEHMKHKTPQIRMECTQLFNASMKEEKDGYSTLQRYLKDEVVPIVIQIVNDTQPAIRTIGFESFAILIKIFGMNTFVKTLEHLDNLKRKKIEETVKTL
With B1, the Kd is 8.9 nM and 9.6 nM; the koff was 0.03 s⁻¹; the kon is 3.2e+06 M⁻¹ s⁻¹.
